Reference: the supplement of paper PMC11865577

How the values were obtained:
Test in all cases: pull-down binding Z-score (relative to library population); higher = stronger binding
[1] = test system: TO-N3-2 (biotin conjugate); conditions: RNA library: Library-2
Summary of the method: (§1)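 To score binding, a beads-only signal was subtracted, barcoded replicate probes were averaged with the highest and lowest dropped, and the value was converted to a Z-score using the library mean and standard deviation. The input was 1 μg of Cy5- or Cy3-end-labelled RNA library, heat-folded in phosphate/NaCl/KCl buffer and mixed for 60 min at 25 °C with streptavidin beads carrying 100 pmol of biotin-conjugated small molecule. Bound RNA was eluted in hot SDS and hybridised to a DNA barcode microarray at 55.5 °C for 20 h.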

[2] = test system: G-clamp-N3 (biotin conjugate); conditions: RNA library: Library-1 (pre-miRNA loops + repeats)
Summary of the method: as §1

[3] = test system: TO-N3 (biotin conjugate); conditions: RNA library: Library-2
Summary of the method: as §1

[4] = test system: TO-3-N3 (biotin conjugate); conditions: RNA library: Library-2
Summary of the method: as §1

[5] = test system: TO-3-N3-2 (biotin conjugate); conditions: RNA library: Library-2
Summary of the method: as §1

Sequence	pull-down binding Z-score [1]	pull-down binding Z-score [2]	pull-down binding Z-score [3]	pull-down binding Z-score [4]	pull-down binding Z-score [5]
GGCGGGCGGCGGUGCCCGUC [hsa-mir-4449]	0.91	1.71	1.53	0.739	0.0801
GGCGGUGAAGCUCC [hsa-mir-4532]	0.727	0.399	-0.104	-0.22	-0.285
GGCGUGGACAACUUGCU [hsa-mir-3943]	0.912	0.951	0.131	-0.271	-0.0337
GGCUCCUGGCGCUGAUGCC [hsa-mir-6886]	1.15	-0.347	1.15	0.85	0.297
GGCUCGUCUGUGUUGCCAAUCGACUC [hsa-mir-1307]	0.866	-0.468	0.973	0.723	0.232
GGCUCUGGGUCCUGCUCCUUAGAGCA [hsa-mir-2467]	0.837	0.344	0.575	0.259	-0.0911
GGCUGCAGGCCCGGCCCCUCUC [hsa-mir-6787]	1.59	0.112	1.1	0.378	0.126
GGCUGCGUGCCACCCGGGCAGCU [hsa-mir-3194]	0.701	1.93	-0.112	-0.341	-0.183
GGCUGCUGGAUUGAAUUAGCUGCA [hsa-mir-1286]	1.15	-0.74	0.506	0.023	0.133
GGCUGGACAGGAGAGGGCUCACCCAGG [hsa-mir-6775]	1.77	0.487	1.78	1.16	0.591
GGCUGGCCCCCUGCUUCGUGCCCAUCC [hsa-mir-937]	1.53	-1.14	0.83	0.211	0.127
GGCUGGGCAGGCGGAAAGAGGUCUGAACUGCCUCUGCC [hsa-mir-6791]	0.358	0.578	-0.0487	-0.139	-0.0685
GGCUGGGGUCACUGACUCUGCUUCCCCUGCC [hsa-mir-6799]	0.62	-0.448	-0.0831	-0.14	-0.0439
GGCUGUGAGCUCUAGCAAUGCCC [hsa-mir-146b]	1.31	-0.867	0.59	0.251	0.158
GGCUGUGGCCUAGGGCAAGCCACAAAGCC [hsa-mir-4642]	0.939	0.507	0.183	0.0577	0.245
GGCUUUGGCAUCUAUGAAAGCC [hsa-mir-4755]	-0.233	0.33	0.507	0.45	-0.302
GGGAACUGGUGAGUUGUACAUAGAAAUGCUUUCUAACUCC [hsa-mir-4499]	0.548	0.204	0.112	-0.123	-0.00162
GGGAAGGAGAAGGGACGCUUCCC [hsa-mir-3127]	0.895	2.68	0.268	0.262	0.167
GGGACACAUUUGAGCCAAAUGUCCC [hsa-mir-610]	-0.132	-0.286	-0.525	-0.35	-0.331

Sequence	pull-down binding Z-score [1]	pull-down binding Z-score [2]	pull-down binding Z-score [3]	pull-down binding Z-score [4]	pull-down binding Z-score [5]
GGGACAUUGCGGAGAGGGUCUCACAUUGUCCC [hsa-mir-4646]	0.488	0.248	0.925	0.894	0.999
GGGACGUGUGAUGCUGUGCUUCCU [hsa-mir-3689f]	0.502	-0.338	-0.185	-0.469	-0.0333
GGGAGAGGGGCCCAGCUGACCCUCCUGUC [hsa-mir-6879]	1.89	-0.867	1.68	0.755	0.744
GGGAGCAUGAACAAUGUUUCUCACUCCC [hsa-mir-3162]	1.13	1.01	0.299	0.186	-0.49
GGGAGCGGCCCUCACAUUGAUGGCUCCU [hsa-mir-6727]	0.257	1.42	0.313	0.264	-0.052
GGGAGGUAAGAAGUCUCUGACUCCU [hsa-mir-5193]	-0.358	0.481	-0.44	-0.307	-0.261
GGGAGGUAUGAUAUCGUGGUUCCU [hsa-mir-3689e]	1.03	-0.485	0.8	0.555	0.567
GGGAGUGGUUCCAUCACGCCUCCUCAC [hsa-mir-483]	0.658	-0.668	0.311	-0.089	-0.147
GGGAUAUUUGCAUUAUACUUAUCC [hsa-mir-5009]	-0.458	-0.101	-0.0499	0.0656	0.015
GGGAUGAGCCCUGGCUCUGUUUCCUAG [hsa-mir-378h]	0.596	-0.127	0.385	0.0333	-0.0124
GGGCAGAAAUAGAUGGCCU [hsa-mir-4270]	1.07	2.97	1	1	0.429
GGGCAGGGAGGGCAGGGCAGGCUCUGGGGUGGGGGGUCUGUGAGUCAGCCACGGCUC [hsa-mir-4516]	4.69	2.89	6.16	6.78	7.72
GGGCAGGGAGUCAGAGGGGACCGCCC [hsa-mir-4740]	1.24	2.09	1.98	2.19	1.93
GGGCAUUCCGGAUAGGCCGAGAAAGUGUUG [hsa-mir-6723]	1.42	0.79	1.67	1.45	0.568
GGGCCAGUCUGACCGUUUCUAGGCG [hsa-mir-551a]	1.75	0.753	1.41	0.541	0.662
GGGCCAUGUCUGUGAGGGCCCA [hsa-mir-4294]	0.936	3.2	0.221	-0.261	0.0026
GGGCCCCAAGACUCGGGGUUU [hsa-mir-4651]	0.197	-0.146	0.65	0.633	-0.00221
GGGCCGUGCACCCGUGGGCCCC [hsa-mir-1915]	1.28	1.73	0.335	-0.204	0.0124
GGGCCUGGGUUUCUGAACAC [hsa-mir-196a-1]	0.762	0.486	0.611	0.328	0.334

Sequence	pull-down binding Z-score [1]	pull-down binding Z-score [2]	pull-down binding Z-score [3]	pull-down binding Z-score [4]	pull-down binding Z-score [5]
GGGCGCCGGCGGCCGGGAGAUCCGCGCUUCCUGAAUCCCGGCCGGCCCGCCCGGCGCCC [hsa-mir-4497]	1.22	-0.232	0.447	0.25	-0.00137
GGGCGGAACACCCAGCCCC [hsa-mir-4417]	0.785	-1.31	-0.21	-0.4	-0.246
GGGCGUGGUGGACAGCGAUGCAUCCC [hsa-mir-6803]	1.19	1.56	0.84	0.532	0.187
GGGCUCGUGAUGGCUGGUGGGCCC [hsa-mir-345]	0.665	3	-0.356	-0.497	-0.191
GGGCUGCCCGGGCCGGUCGACCAGCGCGCCGUAGCUCC [hsa-mir-6724-2_6724-3_6724-1_6724-4]	2.24	0.0384	1.03	0.0652	-0.0157
GGGCUUUCUGGUUUUAUUUUAAGCCC [hsa-mir-186]	-0.494	0.465	0.261	0.594	0.0672
GGGGAGAGGGACACGCCCUGGGCUCUGCCCAGGGUGCAGCCGGACUGACUGAG [hsa-mir-1225]	1.99	1.58	1.95	1.55	1.1
GGGGAUGGACUGGAAGUGGGCAGCAUGGAGCUGACCUUCAUCAUGGCUUGGCCAACAUAAUGCCUC [hsa-mir-1236]	1.38	-0.0946	1.98	1.72	1.33
GGGGCCCUACUUUAAGGGCCCU [hsa-mir-8087]	-0.706	1.03	0.868	0.997	0.194
GGGGCCUGUGGUCCC [hsa-mir-1268a]	-0.675	0.885	-0.282	-0.0124	-0.144
GGGGCUCUU [hsa-mir-4634]	0.21	-0.697	0.365	0.0873	0.0655
GGGGCUGAGGCUGAGUCUUCCUCCC [hsa-mir-6756]	1.53	0.713	0.806	0.154	0.101
GGGGCUGGCUGGGUCUGGUAGUGGGCAUCAGCUGGCCCU [hsa-mir-1207]	1.22	2	2.6	2.53	1.51
GGGGCUGGUUGUCUA [hsa-mir-6080]	0.516	0.388	0.377	0.297	-0.165
GGGGGCAGGCAGGGGAUUGGCUAAGAACCUGACUCUUGC [hsa-mir-7703]	1.75	-0.0197	2.48	2.18	1.44
GGGGGCAGGCUGCCACCUCCUG [hsa-mir-8089]	1.36	-0.161	1.89	1.5	0.599
GGGGGUGGCCGGGGCUGACCCU [hsa-mir-939]	2.08	0.0126	2.56	2.48	1.8
GGGGUAGAAGCCACCCG [hsa-mir-4466]	1.46	0.458	0.492	0.149	0.0166
GGGGUCUUGCUCUAUU [hsa-mir-6088]	0.111	0.123	0.572	0.523	0.136
